Experimental data as given in US20190359719A1 (SORRENTO THERAPEUTICS, published 2019).
Residue numbers refer to the chain shown, from its start.

B1: El-A10 (E1 derived anti-c-Met antibody) (antibody, V domains shown)
VH: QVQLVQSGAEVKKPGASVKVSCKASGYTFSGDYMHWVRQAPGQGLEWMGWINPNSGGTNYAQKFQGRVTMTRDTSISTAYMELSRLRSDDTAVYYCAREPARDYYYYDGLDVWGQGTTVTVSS
VL: QSVVTQPPSVSGAPGQRVTISCLGSASNIGAGHDVHWYQQLPGTAPKLLIYGNSNRPSGVPDRFSGSKSGTSASLAITGLQAEDEADYYCQSYSSSLSAYVFGTGTKVTVL
notes: The two labels are matched by their suffix only; Detected with anti-human IgG (gamma-chain specific); also called E1-A10; GCE-A10
B2: El-B11 (E1 derived anti-c-Met antibody) (antibody, V domains shown)
VH: QVQLVQSGAEVKKPGASVKVSCKASGYTFSGDYIHWVRQAPGQGLEWMGWINPNSGGTNYAQKFQGRVTMTRDTSISTAYMELSRLRSDDTAVYYCAREPARDYYYYDGLDVWGQGTTVTVSS
VL: B1 VL with L23I, A26S, H33Y, P57I, Y100V, V101L
notes: Label 'El-B11' matched to 'GCE-B11' by suffix only; Detected with anti-human IgG; also called E1-B11; GCE-B11
B3: El-B19 (E1 derived anti-c-Met antibody) (antibody, V domains shown)
VH: B2 VH with Y27F, A101G
VL: B1 VL with Y100V, V101L
notes: Label 'El-B19' matched to 'GCE-B19' by suffix only; Detected with anti-human IgG; also called E1-B19; GCE-B19
B4: El-A11 (E1 derived anti-c-Met antibody) (antibody, V domains shown)
VH: B2 VH with Y27F
VL: B1 VL with A26S, P57I, V101L
notes: Label 'El-A11' matched to 'GCE-A11' by suffix only; Detected with anti-human IgG; also called E1-A11; GCE-A11
B5: El-A14 (E1 derived anti-c-Met antibody) (antibody, V domains shown)
VH: B2 VH
VL: B1 VL with L23I, A26S
notes: Label 'El-A14' matched to 'GCE-A14' by suffix only; Detected with anti-human IgG; also called E1-A14; GCE-A14
B6: El-B13 (E1 derived anti-c-Met antibody) (antibody, V domains shown)
VH: B2 VH with Y27S
VL: B1 VL with Y100V, V101L
notes: Label 'El-B13' matched to 'GCE-B13' by suffix only; Detected with anti-human IgG; also called E1-B13; GCE-B13
B7: El-BR1 (E1 derived anti-c-Met antibody) (antibody, V domains shown)
VH: B2 VH with Y27S, I34L
VL: B1 VL with H33Y, Y100V, V101L
notes: Label 'El-BR1' matched to 'GCE-BR1' by suffix only; Detected with anti-human IgG; also called E1-BR1; GCE-BR1
B8: El-A13 (E1 derived anti-c-Met antibody) (antibody, V domains shown)
VH: B2 VH with I34L
VL: B1 VL
notes: Label 'El-A13' matched to 'GCE-A13' by suffix only; Detected with anti-human IgG; also called E1-A13; GCE-A13
B9: El-A18 (E1 derived anti-c-Met antibody) (antibody, V domains shown)
VH: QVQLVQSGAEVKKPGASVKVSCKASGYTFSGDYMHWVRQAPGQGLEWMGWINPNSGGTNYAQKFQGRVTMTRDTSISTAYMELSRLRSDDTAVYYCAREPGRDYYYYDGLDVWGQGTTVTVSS
VL: B1 VL with L23I
notes: Label 'El-A18' matched to 'GCE-A18' by suffix only; Detected with anti-human IgG; also called E1-A18; GCE-A18
B10: A1-9 anti-c-Met antibody (antibody, V domains shown)
VH: QVQLQESGPGLVKPSQTLSLTCTVSGGSISSGGYYWSWIRQHPGKGLEWIGEISHSGSTNYNPSLKSRVTISVDTSKNQFSLKLSSVTAADTAVYYCARGRDGYYLDQWGQGTLVTVSS
VL: LPVLTQPASVSGSPGQSITISCTGTSSDVGGYNYVSWYQQHPGKAPKLMIYNVSDRPSGVSTRFSGSKSGNTASLTISGLQAEDEADYYCSSFRSSSALVVFGGGTKLTVL
notes: Detected with anti-human IgG (gamma-chain specific)
B11: A1-24 anti-c-Met antibody (antibody, V domains shown)
VH: B10 VH with I53S, S54T, K66E, G103S, Y105D, L106F, Q108A
VL: B10 VL with S27F, N52D, S97A
notes: as for B10
B12: A1-4 anti-c-Met antibody (antibody, V domains shown)
VH: B10 VH with I53S, L106F, Q108A
VL: B10 VL with N33P, N52V, F93Y, K107Q
notes: as for B10
B13: A1-32 anti-c-Met antibody (antibody, V domains shown)
VH: B10 VH with I53S, S54T, K66D
VL: B10 VL with S27F, N33P, N52D, S97A
notes: as for B10
B14: A1-2 anti-c-Met antibody (antibody, V domains shown)
VH: B10 VH with I53S, S54T, Y105D, L106F, Q108A
VL: B10 VL with S27F, N52D
notes: as for B10
B15: A1-6 anti-c-Met antibody (antibody, V domains shown)
VH: B10 VH with S54T, Y105D, L106I, Q108A
VL: B10 VL with S27W, N33P, N52D, F93Y, S96V
notes: as for B10

Target: T1, c-Met (HGF receptor) expressed on cells (human, UniProt P08581 25-1390)
T1 construct: whole, on cells; Endogenous c-Met on tumour cell lines and on human umbilical vein endothelial cells
Assay: flow cytometry, antibody titration on DU-145 prostate cancer cells, PE anti-human IgG
Description: (§1) This example illustrates in vitro data for anti-c-Met antibody cellular binding EC₅₀ measurements. […] In this example, DU-145 prostate cancer cells, SK-O-V3 ovarian cancer cells, or human umbilical vein endothelial cells (HUVEC) were aliquoted into the wells of a 96-well, v-bottom plate in FACS Buffer (PBS+2% FBS). A 16-point, 2 fold serial dilution curve of antibodies made in FACS Buffer was used to stain the cells. After 1 hr incubation, cells were washed 2× with FACS Buffer and resuspended in PE-conjugated, goat anti-human IgG (γ-chain specific) secondary antibody (Southern Biotech Cat #2040-09). Cells were further incubated for 0.5 hr and then washed 1× with FACS Buffer. Cells were resuspended in FACS Buffer and the median fluorescence intensity in the FL2-A channel was determined using the Intellicyt® HTFC flow cytometer. Data was collected and analyzed on the Intellicyt® HTFC flow cytometer using the ForeCyt® software. ND=Not Determined.

T1 sequence (P08581 25-1390): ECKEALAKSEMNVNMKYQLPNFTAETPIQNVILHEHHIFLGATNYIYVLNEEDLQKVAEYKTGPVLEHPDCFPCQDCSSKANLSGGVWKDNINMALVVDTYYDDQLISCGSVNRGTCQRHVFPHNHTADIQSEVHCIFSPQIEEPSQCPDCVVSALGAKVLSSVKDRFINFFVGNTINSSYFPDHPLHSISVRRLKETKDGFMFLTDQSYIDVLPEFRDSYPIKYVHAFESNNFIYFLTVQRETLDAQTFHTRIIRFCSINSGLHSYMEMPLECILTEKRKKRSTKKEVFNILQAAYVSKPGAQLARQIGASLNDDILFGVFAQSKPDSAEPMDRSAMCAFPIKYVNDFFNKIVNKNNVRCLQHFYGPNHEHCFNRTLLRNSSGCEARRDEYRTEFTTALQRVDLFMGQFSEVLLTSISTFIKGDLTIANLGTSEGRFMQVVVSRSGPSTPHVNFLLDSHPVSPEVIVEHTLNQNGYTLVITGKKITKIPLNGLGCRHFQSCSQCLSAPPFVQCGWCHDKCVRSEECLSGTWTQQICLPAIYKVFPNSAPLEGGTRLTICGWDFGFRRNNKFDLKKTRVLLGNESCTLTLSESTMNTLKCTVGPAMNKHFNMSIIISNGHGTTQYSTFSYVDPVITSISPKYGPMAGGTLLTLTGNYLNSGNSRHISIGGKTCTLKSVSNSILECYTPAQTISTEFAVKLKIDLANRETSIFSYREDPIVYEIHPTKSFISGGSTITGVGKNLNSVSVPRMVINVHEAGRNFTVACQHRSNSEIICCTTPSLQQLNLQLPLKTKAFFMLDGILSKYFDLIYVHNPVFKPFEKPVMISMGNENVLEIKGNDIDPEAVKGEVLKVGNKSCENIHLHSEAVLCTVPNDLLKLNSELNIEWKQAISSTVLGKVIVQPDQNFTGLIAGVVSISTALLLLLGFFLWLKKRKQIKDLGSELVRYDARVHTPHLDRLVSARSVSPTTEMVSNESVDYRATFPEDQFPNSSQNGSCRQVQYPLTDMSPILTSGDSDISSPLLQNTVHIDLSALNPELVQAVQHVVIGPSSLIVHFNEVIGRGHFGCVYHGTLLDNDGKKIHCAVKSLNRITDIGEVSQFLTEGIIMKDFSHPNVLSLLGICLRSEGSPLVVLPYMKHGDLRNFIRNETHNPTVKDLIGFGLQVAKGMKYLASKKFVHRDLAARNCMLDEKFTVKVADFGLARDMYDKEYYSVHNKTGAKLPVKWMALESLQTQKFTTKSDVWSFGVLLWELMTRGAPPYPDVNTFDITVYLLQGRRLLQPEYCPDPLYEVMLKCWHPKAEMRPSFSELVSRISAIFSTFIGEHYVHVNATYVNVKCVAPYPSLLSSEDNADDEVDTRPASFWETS

| EC50 [nM] | Binder |
| --- | --- |
| 0.2 | B1 |
| 0.34 | B2 |
| 3.35 | B3 |
| 0.26 | B4 |
| 0.212 | B5 |
| 0.251 | B6 |
| 3.36 | B7 |
| 0.362 | B8 |

Target: T1, c-Met (HGF receptor) expressed on cells
Assay: flow cytometry, antibody titration on SK-O-V3 ovarian cancer cells, PE anti-human IgG
Description: as §1

| EC50 [nM] | Binder |
| --- | --- |
| 0.153 | B1 |
| 0.41 | B2 |
| 0.852 | B3 |
| 0.2 | B4 |
| 0.12 | B5 |
| 0.191 | B6 |
| 1.15 | B9 |
| 0.467 | B7 |
| 0.159 | B8 |

Target: T1, c-Met (HGF receptor) expressed on cells
Assay: flow cytometry, antibody titration on DU-145 prostate cancer cells, PE anti-human IgG
Remark: another data set of the same source
Description: as §1, with “cells or” for “cells,”, “cancer” for “cancer cells, or human umbilical vein endothelial”, “cells” for “cells (HUVEC)”, “Determined” for “Determined.”

| EC50 [nM] | Binder |
| --- | --- |
| 0.058 | B10 |
| 0.003 | B11 |
| 0.017 | B12 |
| 0.064 | B13 |

Target: T1, c-Met (HGF receptor) expressed on cells
Assay: flow cytometry, antibody titration on HUVEC cells, PE anti-human IgG
Description: as §1

| EC50 [nM] | Binder |
| --- | --- |
| 0.148 | B1 |
| 0.132 | B5 |
| 0.19 | B6 |
| 0.606 | B9 |
| 0.376 | B7 |

Target: T1, c-Met (HGF receptor) expressed on cells
Assay: flow cytometry, antibody titration on SK-O-V3 ovarian cancer cells, PE anti-human IgG
Remark: another data set of the same source
Description: as §1, with “cells or” for “cells,”, “cancer” for “cancer cells, or human umbilical vein endothelial”, “cells” for “cells (HUVEC)”, “Determined” for “Determined.”

| EC50 [nM] | Binder |
| --- | --- |
| 0.223 | B14 |
| 0.053 | B15 |
| 0.076 | B10 |
| 0.135 | B11 |
| 0.054 | B12 |
| 0.109 | B13 |
